# According to the supplement of paper PMC7877785:
# ± gives the uncertainty stated by the source.
# Assay: self-splicing fitness, log relative to wild type (ln ratio); higher = more splicing; Tetrahymena group I intron in knt gene, E. coli kanamycin selection, DiMSum; sequences stand for … in CUCUCU…GGAGGGAAAAGUUAUCAGGCAUGCACCUGGUAGCUAGUCUUUAAACCAAUAGAUUGCAUCGGUUUAAAAGGCAAGACCGUCAAAUUGCGGGAAAGGGGUCAACAGCCGUUCAGUACCAAGUCUCAGGGGAAACUUUGAGAUGGCCUUGCAAAGGGUAUGGUAAUAAGCUGACGGACAUGGUCCUAACCACGCAGCCAAGUCCUAAGUCAACAGAUCUUCUGUUGAUAUGGAUGCAGUUCACAGACUAAAUGUCGGUCGGGGAAGAUGUAUUCUUCUCAUAAGAUAUAGUCGGACCUCUCCUUAAUGGGAGCUAGCGGAUGAAGUGAUGCAACACUGGAGCCGCUGGGAACUAAUUUGUAUGCGAAAGUAUAUUGAUUAGUUUUGGAGUACUCGUGGUCG
# Procedure, shortened: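 Colonies from six replicate transformations of E. coli BL21(DE3) were pooled and amplicon-sequenced on an Illumina HiSeq 2500. The library placed an intron with all eight P1ex-region nucleotides randomised inside the knt kanamycin-resistance gene on pET-22b(+), and cells grew overnight at 37°C or 30°C on LB agar with or without 25 μg/mL kanamycin (plus 100 μg/mL carbenicillin, 50 μM IPTG, 0.2% rhamnose). Fitness is the DiMSum error-weighted combination of wild-type-normalised replicate fold changes, kanamycin versus none.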
Sequence,self-splicing fitness (ln) (30 °C),self-splicing fitness (ln) (37 °C)
AACAAGCAAUAUUACGUUCU,-2.01 ± 0.064,-1.16 ± 0.094
AAGAAGCAAUAUUACGACCU,0.116 ± 0.099,-0.338 ± 0.11
AAGAAGCAAUAUUACGGACA,-1.66 ± 0.092,-0.389 ± 0.096
GGCUAGCAAUAUUACGGGUG,-0.804 ± 0.094,-0.739 ± 0.1
AGCCAGCAAUAUUACGGCUG,-2.52 ± 0.17,-1.53 ± 0.2
GCUCAGCAAUAUUACGCGCG,-1.03 ± 0.071,-0.194 ± 0.091
UGGAAGCAAUAUUACGGUUU,-4.66 ± 0.34,-2.59 ± 0.21
UCGUAGCAAUAUUACGGACG,-2.58 ± 0.24,-1.68 ± 0.21
CAUUAGCAAUAUUACGAGCC,-2.89 ± 0.23,-2.08 ± 0.27
CUCGAGCAAUAUUACGUGUU,-2.06 ± 0.16,-1.97 ± 0.19
GAUAAGCAAUAUUACGCCCC,-2.27 ± 0.32,-1.43 ± 0.33
GCGAAGCAAUAUUACGCGAG,-2.08 ± 0.22,-3.24 ± 0.3
ACGCAGCAAUAUUACGCUAU,-1.25 ± 0.077,-0.724 ± 0.11
GUCUAGCAAUAUUACGAGAA,-1.8 ± 0.39,-0.829 ± 0.27
ACGGAGCAAUAUUACGAUGG,-3.63 ± 0.32,-0.86 ± 0.27
GGCAAGCAAUAUUACGCAGA,-1.23 ± 0.15,-0.852 ± 0.16
ACCGAGCAAUAUUACGGAGC,-3.33 ± 0.18,-1.73 ± 0.13
CAGAAGCAAUAUUACGGUAU,-3.21 ± 0.19,-2.47 ± 0.22
CUGUAGCAAUAUUACGCAGG,-3.56 ± 0.27,-2.73 ± 0.2
GGGCAGCAAUAUUACGACAG,-2.72 ± 0.39,-0.948 ± 0.32
UUGUAGCAAUAUUACGUCCA,-0.4 ± 0.13,-0.28 ± 0.14
CAUAAGCAAUAUUACGCGCC,-3.87 ± 0.4,-1.47 ± 0.34
UGGCAGCAAUAUUACGAUCU,-0.344 ± 0.11,-0.112 ± 0.11
AACGAGCAAUAUUACGUUGG,-3.75 ± 0.24,-2.86 ± 0.25

Sequence,self-splicing fitness (ln) (30 °C),self-splicing fitness (ln) (37 °C)
ACGCAGCAAUAUUACGUCGU,-3.77 ± 0.26,-1.6 ± 0.21
GCGGAGCAAUAUUACGUUGG,,-3.01 ± 0.4
UUGGAGCAAUAUUACGUCAA,-2.19 ± 0.25,-0.538 ± 0.19
AAGAAGCAAUAUUACGGAAA,-2.17 ± 0.19,-1.72 ± 0.2
AAUUAGCAAUAUUACGGUUG,-2.53 ± 0.13,-0.897 ± 0.13
CAAUAGCAAUAUUACGGUUU,-2.88 ± 0.13,-1.88 ± 0.15
CCUUAGCAAUAUUACGACCG,0.294 ± 0.11,-0.348 ± 0.18
CGACAGCAAUAUUACGAAGC,-2.91 ± 0.24,-3.43 ± 0.35
ACCCAGCAAUAUUACGGCGG,-2.11 ± 0.08,-1.04 ± 0.11
GUAAAGCAAUAUUACGAUCC,-0.0218 ± 0.18,0.363 ± 0.29
UGCCAGCAAUAUUACGUUUG,-2.35 ± 0.092,-0.857 ± 0.12
UGCUAGCAAUAUUACGGCCC,-1.72 ± 0.23,-0.878 ± 0.32
CUUUAGCAAUAUUACGGUUC,-3.33 ± 0.3,-2.83 ± 0.29
AAAGAGCAAUAUUACGCCGG,-3.8 ± 0.42,-2.53 ± 0.24
UCCUAGCAAUAUUACGCAUG,-2.52 ± 0.28,
GAGAAGCAAUAUUACGUCCG,-1.48 ± 0.091,-0.864 ± 0.1
AUAGAGCAAUAUUACGUGAA,,-1.07 ± 0.25
AUUUAGCAAUAUUACGGGCA,-1.56 ± 0.19,-0.452 ± 0.26
GACAAGCAAUAUUACGCGUA,-1.12 ± 0.072,-0.683 ± 0.078
GUUCAGCAAUAUUACGCACG,-0.107 ± 0.22,-0.682 ± 0.31
CGUUAGCAAUAUUACGGUGC,-3.11 ± 0.23,-2.59 ± 0.5
GUUAAGCAAUAUUACGGCCU,-0.808 ± 0.29,0.635 ± 0.44
UUAAAGCAAUAUUACGGAAC,-1.08 ± 0.23,-1.69 ± 0.37
CUUUAGCAAUAUUACGCUGC,-3.39 ± 0.38,0.317 ± 0.36

Sequence,self-splicing fitness (ln) (30 °C),self-splicing fitness (ln) (37 °C)
UCAUAGCAAUAUUACGACUC,-2.18 ± 0.37,-1.46 ± 0.37
GACUAGCAAUAUUACGGUCG,-2.05 ± 0.09,-0.165 ± 0.1
UAGAAGCAAUAUUACGGGAU,-4.15 ± 0.23,-2.36 ± 0.18
GAGCAGCAAUAUUACGGUCC,-2.93 ± 0.18,-1.63 ± 0.17
GCUCAGCAAUAUUACGCCAU,-3.28 ± 0.48,-2.26 ± 0.36
CCUAAGCAAUAUUACGCUUA,-3.09 ± 0.18,-1.97 ± 0.29
AGCAAGCAAUAUUACGAAAA,-3.39 ± 0.19,-2.39 ± 0.18
GCGGAGCAAUAUUACGACGC,,-2.45 ± 0.21
AUUAAGCAAUAUUACGCGUA,-1.27 ± 0.14,-0.834 ± 0.16
AGCAAGCAAUAUUACGGAGC,-2.67 ± 0.19,-1.31 ± 0.24
GUUUAGCAAUAUUACGCUUU,-2.38 ± 0.25,-0.513 ± 0.22
UAGUAGCAAUAUUACGACUC,-0.329 ± 0.16,0.405 ± 0.19
GGCUAGCAAUAUUACGGUAG,-2.31 ± 0.27,-0.259 ± 0.23
UUAAAGCAAUAUUACGUCUC,-2.76 ± 0.13,-1.4 ± 0.13
CGGCAGCAAUAUUACGUUUU,-3.75 ± 0.17,-2.09 ± 0.14
AGUCAGCAAUAUUACGAAUA,-0.962 ± 0.2,-1.22 ± 0.17
ACGUAGCAAUAUUACGAUAG,-3.45 ± 0.24,-2.53 ± 0.23
ACGAAGCAAUAUUACGGUCC,-1.92 ± 0.21,-0.717 ± 0.21
AGUUAGCAAUAUUACGACCA,-0.921 ± 0.093,-0.258 ± 0.13
UGGGAGCAAUAUUACGGAGC,-3.98 ± 0.46,-1.65 ± 0.5
AAGGAGCAAUAUUACGCAGA,,-2.56 ± 0.45
CCGAAGCAAUAUUACGUUGA,-3.76 ± 0.15,-3.45 ± 0.17
AAGAAGCAAUAUUACGACGA,-0.362 ± 0.093,-0.274 ± 0.099
ACUAAGCAAUAUUACGCGUU,-3.36 ± 0.13,-1.58 ± 0.11

Sequence,self-splicing fitness (ln) (30 °C),self-splicing fitness (ln) (37 °C)
GAGAAGCAAUAUUACGCCCA,-0.503 ± 0.2,-0.351 ± 0.18
AAAUAGCAAUAUUACGGGCU,-2.04 ± 0.15,-0.367 ± 0.13
GCCUAGCAAUAUUACGAAAG,-4.21 ± 0.24,-1.07 ± 0.18
GUAGAGCAAUAUUACGGAAA,-2.18 ± 0.28,-2.18 ± 0.22
GACUAGCAAUAUUACGUAAG,-0.946 ± 0.087,-0.709 ± 0.11
GAACAGCAAUAUUACGCGUA,-0.925 ± 0.072,-0.411 ± 0.07
CGGAAGCAAUAUUACGAUGU,-2.72 ± 0.19,-0.735 ± 0.14
AACAAGCAAUAUUACGACGC,-0.761 ± 0.066,-0.386 ± 0.076
AUCUAGCAAUAUUACGAGGU,-5.03 ± 0.45,-3.28 ± 0.43
AUGCAGCAAUAUUACGGUUC,-2.28 ± 0.088,-1.83 ± 0.13
GCCAAGCAAUAUUACGCGUU,-0.424 ± 0.059,0.358 ± 0.079
AGGUAGCAAUAUUACGGCCG,-0.244 ± 0.018,0.0571 ± 0.038
ACAGAGCAAUAUUACGCAAA,-2.6 ± 0.34,-1.42 ± 0.28
UACUAGCAAUAUUACGGAGU,-3.43 ± 0.24,-3.25 ± 0.29
AUAGAGCAAUAUUACGGGUA,-2.89 ± 0.16,-2.53 ± 0.24
AUAAAGCAAUAUUACGCUCA,0.119 ± 0.11,-0.112 ± 0.12
CUCAAGCAAUAUUACGUAGA,-3.23 ± 0.1,-1.53 ± 0.11
GUUUAGCAAUAUUACGCACA,-0.867 ± 0.12,-0.0205 ± 0.14
CCGCAGCAAUAUUACGAUCA,-2.72 ± 0.22,-1.85 ± 0.27
UCGCAGCAAUAUUACGGUAA,-0.786 ± 0.061,-0.563 ± 0.071
UACGAGCAAUAUUACGCACU,-2.42 ± 0.29,-2.13 ± 0.28
UGAAAGCAAUAUUACGAAAU,-3.67 ± 0.2,-1.95 ± 0.18
AAACAGCAAUAUUACGGAUC,-2.82 ± 0.11,-1.73 ± 0.11
UACUAGCAAUAUUACGAUGG,-0.657 ± 0.12,-0.406 ± 0.2
